Ends that are not written are not given here. * marks the point of attachment. Geranylgeranyl = CC(C)=CCC/C(C)=C/CC/C(C)=C/CC/C(C)=C/C*; Farnesyl = CC(C)=CCC/C(C)=C/CC/C(C)=C/C*

Experiment [1] concerns the target T1, Rat protein farnesyltransferase (rFTase) (rat, UniProt Q04631 1-377; Q02293 1-437). As to the kind of experiment: X-ray crystal structure, FTase complexed with FPT-II and peptide (FIG. 16). From the text:
(§1) The FTase:FPTII: Ca₁a₂X complexes were transferred to cryoprotection solutions and flash-cooled in liquid nitrogen.
(§2) Diffraction data were collected at 100 K with an R-Axis IV image plate system (Molecular Structure Corp., The Woodlands, Tex., United States of America) mounted on a Rigaku RU-H3R rotating anode generator with double mirror optics (Molecular Structure Corp.). Diffraction data were also collected at the BioCARS and SER-CAT beamlines at the Advanced Photon Source, Argonne National Labs and at the X25 beamline at the National Synchrotron Light Source, Brookhaven National Labs (BNLNSLS).
(§3) The structures were determined by rigid body refinement using either rat FTase (Brookhaven Protein Data Bank code 1 D8D) or human FTase (Brookhaven Protein Data Bank code 1JCQ) as the initial model with ligands removed. […] After rigid body refinement, FPT-II and the Ca₁a₂X peptides were fit into σA weighted Fₒ-Fc maps and the complexes refined against all data with |F|≧0 by iterative cycles of simulated annealing, minimization, individual B-factor refinement, and model building. Refinements were carried out using CNS v1.0 (Brünger et al., 1998) and models built using O (Jones et al., 1991).

The target in experiment [2] is T2, Rat protein geranylgeranyl transferase type I (GGTase-I) (rat, UniProt Q04631 1-377; P53610 1-377). As to the kind of experiment: X-ray crystal structure, ternary Complex 2 with 3'AzaGGPP. The procedure:
(§4) GGTase-I crystals were grown at 17° C. in hanging drops using equal volumes of protein and reservoir solution (1.3 M NH₄SO₄, 175 mM Na₃ citrate pH 6.5, 20 mM DTT and 100 mM MES, pH 6.3). Micro-seeds were added after equilibration to control nucleation. Seeding solution was produced by crushing GGTase-I crystals in stabilizing solution (1.5 M NH₄SO₄, 175 mM Na₃ citrate pH 6.5, 5 mM ZnCl₂, 20 mM DTT and 100 mM MES, pH 6.3). […] For data collection crystals were transferred stepwise into cryosolvent (30% (w:v) sucrose, 1.8 M NH₄SO₄, 5 mM ZnCl₂, 10 mM TCEP, and 100 mM MES, pH 6.3) before flash-freezing in liquid nitrogen. Derivative crystals were soaked 18 hours in cryosolvent containing 1 mM Di-m-iodobis (ethylenediamine) diplatinum (II) nitrate (PIP) and no TCEP.

For experiment [3], the target named is T2, Rat protein geranylgeranyl transferase …. Put plainly: X-ray crystal structure, ternary complex with 3'azaGGPP. As for the experimental part:
Rat GGTase-I was expressed and purified as previously described herein (see also SAtrickland et al., 1999). […] GGTase-I product co-crystals were first transferred stepwise from their mother liquor (1.3 M NH₄SO₄, 175 mM Na₃-citrate, 100 mM MES pH 6.3, and 20 mM DTT) to cyro-solvent (30% (w:v) sucrose, 900 mM Na₃-citrate, 100 mM MES pH 6.3, 10 mM TCEP, and 1 μM ZnCl₂) supplemented with 0.2 mM 3′azaGGPP and 0.2 mM of the appropriate Ca₁a₂X peptide (Sigma-Genosys, >95% purity). All crystals were soaked for a week to allow for ternary complex formation and flash-cooled in liquid nitrogen.
as §2

Experiment [4] has the same target. As to the kind of experiment: X-ray crystal structure, product Complex 3. The procedure: as §4
Experiment [5] deals with T1, Rat protein farnesyltransferase (rFTase). Put plainly: co-crystal of the product complex.
Experiment [6] has the same target. Put plainly: X-ray crystal structure, ternary complex with FPT-II.
Text: as §1, §2, §3

Experiment [7] concerns the target Human protein farnesyltransferase (hFTase) (human, UniProt P49354 1-379; P49356 1-437). The description is as above.
Text: as §1, §2, §3

B1: H-Ras peptide GCVLS (SEQ ID NO: 6) (peptide)
peptide: GCVLS
notes: Synthetic, Sigma-Genosys, >95% purity; also called H-Ras (CVLS)
With B1, the binding result in experiment [1] is given as “binds”.

B2: Ca1a2X peptide KKKSKTKCVIL (SEQ ID NO: 1) (peptide)
peptide: KKKSKTKCVIL
notes: Synthetic, Sigma-Genosys, >95% purity; also called Rap2b chimera peptide; CVIL peptide
For B2, the binding result in experiment [2] is recorded as “binds”.

B3: K-Ras4B peptide KKKSKTKCVIM (SEQ ID NO: 8) (peptide)
peptide: KKKSKTKCVIM
notes: Synthetic, Sigma-Genosys, >95% purity; also called K-Ras4B (CVIM)
Turning to B3, the binding result in experiment [3] is given as “binds”.

B4: Cdc42 splice isoform 2 peptide RRCVLL (SEQ ID NO: 14) (peptide)
peptide: RRCVLL
notes: Synthetic, Sigma-Genosys, >95% purity; also called Cdc42-II
For the molecule B4, in experiment [3], the binding result is “binds”.

B5: geranylgeranylated-KKKSKTKCVIL product (SEQ ID NO: 1) (peptide)
peptide: KKKSKTKC(Geranylgeranyl)VIL
notes: also called prenyl-peptide product; prenylated product
As to B5, in experiment [4], the binding result was “binds”.

On to KKSKTKCKVL (Synthetic, Sigma-Genosys, >95% purity) [RhoB peptide KKSKTKCKVL (SEQ ID NO: 12)], for which, in experiment [3], the binding result is listed as “binds”.

B6: farnesylated-KKKSKTKCVIM product (SEQ ID NO: 8) (peptide)
peptide: KKKSKTKC(Farnesyl)VIM
notes: Product co-crystal with FTase, used as starting material for the TC21 soak; also called farnesylated product
B6: the binding result in experiment [5] was “binds”.

For the molecule GCINCCKVL (Synthetic, Sigma-Genosys, >95% purity) [RhoB peptide GCINCCKVL (SEQ ID NO: 11)], the binding result in experiment [3] was “binds”.

B7: TC21 peptide KKSKTKCVIF (SEQ ID NO: 9) (peptide)
peptide: KKSKTKCVIF
notes: Synthetic, Sigma-Genosys, >95% purity; also called TC21 (CVIF)
Consider B7, for which the binding result in experiment [6] and in experiment [3] was “binds” throughout.

B8: Rap2a peptide DDPTASACNIQ (SEQ ID NO: 10) (peptide)
peptide: DDPTASACNIQ
notes: Synthetic, Sigma-Genosys, >95% purity; also called Rap2a (CNIQ)
As for B8, the binding result in experiment [7] is “binds”.

B9: heterotrimeric G protein γ2 subunit peptide FREKKFFCAIL (SEQ ID NO: 13) (peptide)
peptide: FREKKFFCAIL
notes: Synthetic, Sigma-Genosys, >95% purity; also called y2
In the case of B9, the binding result in experiment [3] is on record as “binds”.

The record behind these values is US20050221459A1 (DUKE UNIVERSITY, published 2005).
